Results taken from article PMC6884138 (ACS synthetic biology, 2019).

How the values were obtained:
crystal structure = target: the molecule itself; test: crystal structure
SEC = target: the molecule itself; test: SEC

B1: BMC-H^2 (synthetic tandem-domain BMC shell protein), released from 6xHis-SUMO-BMC-H^2 by ULP protease (other, Haliangium ochraceum)
chain: MADALGMIEVRGFVGMVEAADAMVKAAKVELIGYEKTGGGYVTAVVRGDVAAVKAATEAGQRAAERVGEVVAVHVIPRPHVNVDAALPLGRTPGMDKSALDAPVVADAWEEDTESADALGMIEVRGFVGMVEAADAMVKAAKVELIGYEKTGGGYVTAVVRGDVAAVKAATEAGQRAAERVGEVVAVHVIPRPHVNVDAALPLGRTPGMDKSA
stoichiometry N (crystal structure): 90
stoichiometry N (SEC): 3
